Laboratory results: US20130252987A1, “METHOD OF REGULATING PLASMA LIPOPROTEINS” (MCMASTER UNIVERSITY, priority 2010, published 2013)

Columns and labels:
human hepatocytes = experiment: cellular apoB100 protein expression in primary human hepatocytes; assay type: cell-based; conditions: 50 ng/mL, 24 hours
Method: Primary Cells: Fresh wild-type rat and mouse primary heptaocytes were supplied by CellzDirect (Invitrogen, NC) in a 6-well collagen coated plate. Upon arrival, the storage media was removed and incubation media (Williams E Medium, phenol red free, with incubation supplement pack, Gibco, NC) was added according to manufactures' instructions. The cells were incubated at 37° C. with 5% CO2 for 16 hours prior to human resistin (50 ng/mL) treatment for 24 hours. Cryopreserved plateable human hepatocytes, metabolism qualified from multiple normal human donors, were supplied by CellzDirect (Invitrogen, NC). Upon arrival, the cells (4-8 million in 1 mL), according to the manufacturer's instruction, were added to 48 mL warmed thawing medium (CHRM® Medium, Invitrogen, NC) and centrifuged at 100×g for 10 min at room temperature. The pellet was re-suspended in 4 mL plating medium (Williams E Medium, phenol red free, with maintenance supplement pack and 10% FBS, Gibco, NC). The cells were stained by Trypan Blue (Sigma, Canada) and counted by a haemocytometer, followed by seeding 1×10^6 cells/well in a 6-well collagen coated plate (CellzDirect, Invitrogen, NC). The cells were incubated at 37° C. with 5% CO2 for 4 hours to allow the cells to adhere. The plating media was replaced and cell incubated for 16 hours prior to human resistin treatment for 24 hours. […]

human PCSK9 = experiment: PCSK9 siRNA studies in HepG2 cells; assay type: cell-based
Method: Four siRNAs targeting human PCSK9 synthesized by Qiagen (Qiagen, MD) were purchased and tested. The siRNAs were transfected into HepG2 cells at a final concentration of 10 nM, using HiPerFect transfection reagent (Qiagen, MD) at 0.5% final volume. The siRNA that produced the maximum decrease in PCSK9 mRNA and protein expression in HepG2 cells (70% knockdown by Western blot 24 hours post-transfection) was chosen for further experiments. As a negative control, HepG2 cells were transfected with a scrambled siRNA control vector in HiPerFect (both Qiagen, MD). As a positive control, HepG2 cells were transfected with siRNA targeting the constitutively expressed GAPDH gene, using HiPerFect (Qiagen, MD). Western blots against PCSK9 (Caymen Chemicals, MI), LDL receptor (Fitzgerald International, CA) and GAPDH (Sigma, Mo.) were done in control untreated HepG2 cells, cells transfected with the optimal PCSK9 siRNA (Qiagen, MD) and cells treated with human resistin (50 ng/mL) plus PCSK9 siRNA 24 hours post-transfection.
The extent of the role of PCSK9 in the resistin mediated reduction in hepatocyte LDL receptor levels was examined. […] PCSK9 protein levels in hepatocytes were next assessed in response to PCSK9 siRNA administration, with and without resistin. […]

HepG2 cells = experiment: immunoblotting for LDL receptor and PCSK9 in HepG2 cells; conditions: 24 hours
Method: Cells were propagated in 10% FBS-containing DMEM supplemented with 1% penicillin-streptomycin and 0.06% L-glutamine (584 mg/L) at 37° C., 5% CO2. During treatment experiments with human recombinant resistin (Calbiochem, UK) and/or lovastatin (Sigma, Mo.), the media was changed to 1% FBS-containing DMEM. All of the experiments to follow were performed at least three times and representative results are shown. Cells were stimulated with resistin at various doses (0, 10, 25, 50, and 100 ng/mL) for 24 hours or with a single dose at 50 ng/mL resistin. In other experiments, the microsomal triglyceride transfer protein (MTP) inhibitor, CP-346086, was administered at 1.3 nM, either alone or together with resistin (50 ng/mL) for 24 hours. Lovastatin was administered at 1 to 5 μM for 24 hours to stimulate the cells, either alone or in combination with resistin (50 ng/mL). Unless otherwise indicated, all experiments were performed in triplicate in three independent experiments.
Cell lysates collected with RIPA buffer (50 mM Tris, 150 mM sodium chloride, 1% NP-40, 12 mM sodium deoxycholate, 3.5 mM SDS, pH 7.4) and protease inhibitor cocktail (Roche Diagnostics, QC) were analyzed for human LDL receptor and PCSK9 as previously described (Rashid et al. Proc Nall Acad Sci U S A 2005; 102:5374-9). Equivalent amounts of total protein, determined by Bradford reaction was subjected to sodium dodecyl sulfate polyacrylamide gel electrophoresis (SDS-PAGE), transferred onto nitrocellulose membranes (BioRad, CA) and immunoblotted using antibodies against the LDL receptor (Fitzgerald International, CA) and PCSK9 (Cayman Chemicals, MI). Horseradish peroxidase-conjugated antibodies (BioRad, CA) were used as secondary antibodies. Immunoreactive bands were visualized with a chemiluminescence kit (PerkinElmer Life Sciences, MA). The blots were exposed to KODAK Biomax films, and the signal was quantified by densitometry using Quantity One version 4.6.7. software (Bio Rad, CA).
All of the experiments were performed at least three times and representative results are shown. Dose-response experiments were performed in HepG2 cells with 0, 10, 25, 50, 75 and 100 ng/mL of human resistin for 24 hours. Western blots were then performed on cell lysates to detect the cellular expression of LDL receptor protein.

B1: human resistin: recombinant lyophilized purified human resistin (Calbiochem); cysteine-rich cytokine, single 12 kDa band (protein)
chain: KTLCSMEEAINERIQEVAGSLIFRAISSIGLECQSVTSRGDLATCPRGFAVTGCTCGSACGSWDVRAETTCHCQCAGMDWTGARCCRVQP
With B1 the “increase in cellular apoB protein expression versus untreated control cells” value (human hepatocytes) was 40-50%, the “effect on LDL receptor elevation induced with PCSK9 siRNA” value (human PCSK9; resistin 50 ng/mL plus PCSK9 siRNA) was “reversed” and the “cellular PCSK9 levels compared with siRNA treatment alone” value (human PCSK9; resistin plus PCSK9 siRNA) was “enhanced”. For the same molecule, the “reduction of LDL receptor protein expression” value (HepG2 cells; 25 ng/mL resistin) was 30%, the “decrease in cellular LDL receptor protein expression” value (HepG2 cells; 50 ng/mL resistin) was 40% and the “decrease in cellular LDL receptor protein expression” value (HepG2 cells; 75 ng/mL resistin) was 40%. The “increase in cellular PCSK9 protein” value (HepG2 cells; resistin 50 ng/mL, with lovastatin 5 μM) was 50%.
